The data set concerns the target T1, gold nanoparticle linked S18 peptide.
T1 chain: CGGKETAAAKFERQHMDS

B1: S-protein of Ribonuclease S (protein)
chain: SSSNYCNQMMKSRNLTKDRCKPVNTFVHESLADVQAVCSQKNVACKNGQTNCYQSYSTMSITDCRETGSSKYPNCAYKTTQANKHIIVACEGNPYVPVHFDASV
Take B1: the “RF power level at 50% RNase S activity (poly C hydrolysis)” value is -4 dBm at the 50% activity; the “RNase S activity (digested polyC, absorption at 280 nm) with RFMF on and off” value is “The activity with the RFMF on was less than with the RFMF off”.
